Positions of bridges follow the written chain, without caps; N, C: chain ends. No end group written: not given here.
Experiments:
[1] = target: T1, MC3R (Homo sapiens, UniProt P41968); assay: MC3 cAMP assay in HEK293/MC3R cells (antagonist protocol); type: cell-based; settings: HEK293/MC3R stable cell line, against NDP-α-MSH EC80
T1 construct: expressed in transfected cells; host or cells: HEK293
Description: Cells: HEK293/MC3R stable cell line
• I. Aspirate conditioned medium • II. Wash with 2.5 mL of DPBS (Gibco, Cat. No. 14190) • III. Add 2 mL of 0.25% Trypsin-EDTA (Gibco, Cat. No. 25200-056) • IV. Leave the flask for few minutes in incubator, tap the flask a few time to detach cells. • V. Add 10 mL of the complete medium to stop Trypsin-EDTA treatment and mix it well by pipetting softly a few times to re-suspend clumping cells • VI. Transfer 1.5 ml of cells into a new 150 cm flask containing 20 ml of complete media • VII. Transfer the remaining suspension into a 50 mL centrifuge tube • VIII. Spin down at 1200 rpm for 4 mins. Aspirate supernatant • IX. Add 6 mL of the assay buffer to the tube and re-suspend the cells by softly pipetting • X. Transfer 0.5 mL of the suspension into a sample vial for Vi-cell and add another 0.5 ml of PBS. • XI. Count cell number by using a Vi-cell *Record cell density and viability every time • i. Plate cells at 4K/well in 10 ul/well of assay buffer containing IBMX. • ii. Leave the plate in incubator for ˜30 mins before assay is started on suspension cells.
Two step cAMP protocol is followed for cAMP determination.
• I. To 10 ul/well of cells add 5 ul of AgRP prepared at 3× in assay buffer only to antagonist wells. • II. Add 5 ul of buffer to positive control wells (wells that will have NDP-α-MSH). • III. Incubate the plate at 37° C. for ˜20 mins. • IV. […]

[2] = In vivo plasma stability of AgRP conjugates, 10 nanomoles per rat iv, AgRP ELISA; settings: male Sprague-Dawley rats, 10 nanomoles per rat intravenously
Description: 10 nanomoles of conjugate was dissolved in 300 μL of PBS (Phosphate buffered saline) to form Dosing solution. Dosing solution ([…]) was administered intravenously to male Sprague-Dawley rats via lateral tail vein (corresponding to a dose 10 nanomoles per rat). Blood was collected via tail snip at prescribed times after dosing and immediately placed on wet ice. These samples were centrifuged at 4C, with supernatant plasma transferred to a fresh tube for analysis.
Standard curve preparation: The two fatty acid conjugates of examples 27A and 27B and one mature human AgRP peptide were used to make standards. Intermediate stock solutions of each AgRP were prepared by diluting the stock labeled peptides in ELISA sample diluent with casein to 100 ug/ml. For assay, intermediates were diluted to a top standard concentration of 2500 pg/mL and then diluted 2-fold serially to 16 points including a zero dose standard in ELISA sample diluent with bovine serum albumin (BSA). Sample dilution: Plasma samples were diluted 10-fold and then 5-fold serially out to 31,250-fold in ELISA sample diluent with BSA. […] Plates were washed a final time and a chemiluminescent substrate was added to all wells and plates were read immediately on a Spectramx M5 for light output. Data analysis: Raw data was organized and analyzed for basic PK parameters. […]

[3] = target: T2, RXFP1 (Homo sapiens, UniProt Q9HBX9); assay: Serelaxin in vitro activity assay #1: cAMP HTRF in RXFP1-HEK293 cells; type: cell-based; settings: DMEM:F12 media
T2 construct: expressed in transfected cells; host or cells: HEK293
T2 sequence (Q9HBX9 1-757): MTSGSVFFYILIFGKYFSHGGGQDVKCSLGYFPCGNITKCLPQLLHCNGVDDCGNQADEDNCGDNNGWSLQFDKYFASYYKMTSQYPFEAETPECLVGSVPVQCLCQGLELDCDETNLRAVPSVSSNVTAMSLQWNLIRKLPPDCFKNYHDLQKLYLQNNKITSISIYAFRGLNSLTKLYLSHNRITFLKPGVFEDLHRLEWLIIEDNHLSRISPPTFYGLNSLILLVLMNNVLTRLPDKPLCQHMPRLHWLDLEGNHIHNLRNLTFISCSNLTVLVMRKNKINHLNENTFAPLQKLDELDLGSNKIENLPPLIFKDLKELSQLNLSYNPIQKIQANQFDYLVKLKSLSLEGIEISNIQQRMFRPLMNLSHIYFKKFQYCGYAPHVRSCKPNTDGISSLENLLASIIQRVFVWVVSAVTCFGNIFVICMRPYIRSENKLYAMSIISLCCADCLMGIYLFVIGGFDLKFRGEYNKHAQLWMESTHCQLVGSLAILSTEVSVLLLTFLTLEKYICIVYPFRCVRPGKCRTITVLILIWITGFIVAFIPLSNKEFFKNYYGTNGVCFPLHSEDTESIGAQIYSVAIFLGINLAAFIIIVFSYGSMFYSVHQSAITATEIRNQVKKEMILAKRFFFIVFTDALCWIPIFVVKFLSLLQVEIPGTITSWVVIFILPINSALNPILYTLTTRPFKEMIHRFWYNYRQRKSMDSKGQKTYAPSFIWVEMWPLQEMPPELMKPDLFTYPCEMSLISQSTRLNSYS
Description: Protocol: Day 1: Seeded RXFP1-HEK293/parental HEK293 cells 8k in 10 μl of DMEM: F12 media in solid bottom PDL coated white plates Day 2: Ran assay with the compound Agonist Mode (Overview): • Cells in 10 μl of DMEM:F12 media @37° C. O/N • 5 μl of 2000 μM (4×) of IBMX to the cells for 30 min at 37° C. • 5 μl of 4× compound/Serelaxin to the above for 30 min at 37° C. […]
Read FRET signal—Envision 665 nm/620 nm […]

[4] = target: T2, RXFP1; assay: Serelaxin in vitro activity in presence of bovine serum albumin and human serum #2: cAMP in RXFP1-HEK293 cells; type: cell-based
Description: In Vitro Activity in Presence of Bovine Serum Albumin and Human Serum #2: Materials: DMEM: F12 media (Gibco, cat #11320) IBMX (Sigma, cat #15879) 384 solid bottom white plates (Greiner bio-one, cat #781945) 20,000 dynamic-2 cAMP kit (Cisbio, cat #62AM4PEC) Adenosine 3′, 5′-cyclic monophosphate (Sigma, cat #A9501) Matrix-plate mate plus (used for adding 5 μl of assays reagents) PBS-Gibco (cat #10010-023) 1M HEPES Gibco (cat-15630-080) 1×HBSS Gibco (cat-14175-095) Assay buffer—1×HBSS+10 mM HEPES Bovine serum albumin cat #A2153 (Sigma-Aldrich) Sigma Aldrich—H4522 (Human serum) Conditions:
10% Human Serum (Sigma aldrich—H4522)
• Serelaxin 10 ul stock dissolved in 190 ul of PBS, final concentration is 40 μM, which are diluted 3× fold by transferring 30 ul to 60 ul of the assay buffer 11 point curve, (A2-A12) 12th is zero. Serelaxin-FA conjugate: Stock is (287.79 uM) i.e 2.61 mg/ml MW is 9069 Daltons • Serelaxin 27.798 ul stock dissolved in 172.2 ul of PBS, final concentration is 40 μM, which are diluted 3× fold by transferring 30 ul to 60 ul of the assay buffer 11 point curve, (A2-A12) 12th is zero. BSA Stock Solution Preparation: For 666.66 uM BSA: Made assay buffer 30 mls by dissolving 1.32 gms of BSA For 600 uM BSA: Made assay buffer 30 ms by dissolving 1.18 gms of BSA No BSA, has only assay buffer Human Serum For 4.44% HS: 1.34 mls in 28.66 mls of assay buffer For 4% HS: 1.2 mls in 28.8 mls of assay buffer For 11.11% HS: 3.33 mls in 26.67 mls of assay buffer For 10% HS: 3 mls in 27 mls of assay buffer Procedure: Day 1: Seed 8,000 cells/well of RXFP1-HEK293 and HEK293 (parental) cells in 10 μl/well volume in basal DMEM:F12 media-on solid bottom plate. Incubate cells overnight at 37° C./5% CO2. Day 2: • 1. Wash cells 2× times with 50 ul of assay buffer and were tapped gently on paper towel to get rid of assay buffer after first and second wash • 2. Cells were pretreated with 15 ul of media with IBMX (666.66 uM) containing respective media (600 uM of BSA, 4% BSA, 10% Human serum and assay buffer alone) for 30 minutes at 37° C. • 3. Serially dilute cpds 3× times, 11 point curve—transferring 15 ul of cpds from previous well to subsequent well with 30 ul of PBS, well 11 is PBS only • 4. Dilute (1:10) in assay buffer from step 3 (i.e is 10 ul to 90 ul of assay buffer) • 5. Dilute again from step 4 (1:10) in respective media (666.66 μM of BSA &4.44% & 11.11% Human serum and assay buffer) final con of the BSA is 600 μM and Human serum is 4 & 10% • 6. (*Incubate the cpds for 1 hr at RT in their respective media, before adding to cells) • 7. […] Read FRET on Envision • 12. cAMP std curves were made in their respective media. cAMP Standard Curve Dilutions:
The initial stock of cAMP standard is 1120000 nM • 1. […] Read on HTRF—Envision Analysis: […]

[5] = test system: high fat diet-induced obese (DIO) mice; assay: Glucose-stimulated insulin secretion (GSIS) assay; type: in vivo; settings: single IV dose 45 min before oral glucose 3 g/kg
Description: GSIS test was performed as a measurement of in vivo pancreatic beta cell function following recombinant human Prolactin-inducible Protein (hPIP) in high fat diet-induced obese (DIO) mice. Briefly, mice (m=5-7/group) were fasted overnight (5:00 PM-8:00 AM) and on the test day body weight and blood glucose (BG; determined with Embrace glucose meters) which was designated as baseline timepoint. Next, mice were administered with hPIP (native and FA-conjugated PIP; solution in PBS; administered at 4 ml/kg body weight) or a vehicle-control (PBS) once intravenuously (IV). Forty-five min following the hPIP administration, all mice were dosed with oral glucose (3 g/kg dextrose; solution in PBS; administered at 4 ml/kg body weight). Blood glucose was measured immediately before the glucose load (designated as 0 min time point) and at 15 and 30 min post-glucose. Blood samples were collected for plasma isolation and measurement of plasma insulin were carried out at 0, 15 and 30 min post-glucose.

[6] = Pharmacokinetics (PK) assay of hPIP, single IV administration; type: in vivo; settings: DIO mice
Description: Plasma exposure of hPIP were measured in DIO mice following a single IV administration. Briefly, freely-fed DIO mice (n=2) were administered with hPIP (native and FA-conjugated PIP; solution in PBS; administered at 4 ml/kg body weight) once intravenuously (IV). Blood samples were collected and plasma isolated at 0.25, 0.5, 1, 3, 7, 24 and 48 hrs post-dose by and in-house ELISA assay (protocol shown below).

T1 sequence (P41968 whole entry, species assumed): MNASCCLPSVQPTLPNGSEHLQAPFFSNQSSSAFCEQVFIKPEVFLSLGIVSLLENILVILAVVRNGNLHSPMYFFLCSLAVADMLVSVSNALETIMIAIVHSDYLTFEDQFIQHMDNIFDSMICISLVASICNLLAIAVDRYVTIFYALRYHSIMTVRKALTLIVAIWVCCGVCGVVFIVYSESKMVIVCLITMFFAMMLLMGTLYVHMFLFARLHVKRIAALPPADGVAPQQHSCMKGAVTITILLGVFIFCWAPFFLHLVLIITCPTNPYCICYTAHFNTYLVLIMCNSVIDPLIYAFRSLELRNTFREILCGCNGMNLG

## AgRP: mature human AgRP peptide (SSRRCVRLHESCLGQQVPCCDPCATCYCRFFNAFCYCRKLGTAMNPCSRT; disulfide 12-26, 19-37, 5-20, 23-47, 28-35)
[1]
  EC50: 12000 pM
[2]
  In vivo Plasma stability t½: 4.4 h

## Serelaxin: Recombinant 1-chain human relaxin (DSWMEEVIKLCGRELVRAQIAICGMSTWSCFRALSRKTCGVHCCKNALASYLE; Serelaxin Sequence)
[3]
  EC50: 1120 pM
[4]; 0% Plasma
  EC50: 8000 pM
[4]; 4% Plasma
  EC50: 300 pM
[4]; 10% Plasma
  EC50: 400 pM
[4]; 600 uL BSA
  EC50: 700 pM

B1: Unconjugated PIP: recombinant human Prolactin-inducible Protein (hPIP), native (protein, UniProt P12273 29-146, looked up)
Prolactin-inducible protein: QDNTRKIIIKNFDIPKSVRPNDEVTAVLAVQTELKECMVVKTYLISSIPLQGAFNYKYTACLCDDNPKTFYWDFYTNRTVQIAAVVDVIRELGICPDDAAVIPIKNNRFYTIEILKVE
[5]
  Plasma Insulin AUCB (ng/mL*min) compared to the vehicle: +29%
[6]
  Cmax: 220 nM
  MRT: 12.0 h

Source: patent publication US11752211B2, “Fatty acids and their use in conjugation to biomolecules” (NOVARTIS AG, priority 2014, dated 2023)
